Assay results from patent US20260265389A1 (CANTAI THERAPEUTICS, published 2026).

T1: IL-23 heterodimer (IL-23α & IL-12β) (Homo sapiens (Human), UniProt Q9NPF7 20-189; P29460 23-328)
T1 construct: also called heteromeric IL-23
T1 sequence 1: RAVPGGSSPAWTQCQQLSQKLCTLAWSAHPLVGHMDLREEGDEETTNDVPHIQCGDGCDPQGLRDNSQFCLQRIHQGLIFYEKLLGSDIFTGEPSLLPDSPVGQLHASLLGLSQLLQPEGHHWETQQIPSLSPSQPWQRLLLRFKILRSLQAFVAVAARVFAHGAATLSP
T1 sequence 2: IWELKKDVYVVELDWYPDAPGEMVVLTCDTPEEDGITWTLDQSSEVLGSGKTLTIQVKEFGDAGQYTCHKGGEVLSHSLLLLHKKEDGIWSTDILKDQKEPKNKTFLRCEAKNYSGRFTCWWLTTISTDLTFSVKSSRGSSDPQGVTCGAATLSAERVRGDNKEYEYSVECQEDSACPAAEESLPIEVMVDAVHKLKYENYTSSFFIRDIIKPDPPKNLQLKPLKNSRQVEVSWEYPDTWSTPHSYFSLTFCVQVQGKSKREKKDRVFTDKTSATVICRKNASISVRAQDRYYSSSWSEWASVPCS

T2: biotinylated recombinant human TL1A (human, UniProt O95150 72-251, limits assumed, biotinylated (site not stated))
T2 sequence: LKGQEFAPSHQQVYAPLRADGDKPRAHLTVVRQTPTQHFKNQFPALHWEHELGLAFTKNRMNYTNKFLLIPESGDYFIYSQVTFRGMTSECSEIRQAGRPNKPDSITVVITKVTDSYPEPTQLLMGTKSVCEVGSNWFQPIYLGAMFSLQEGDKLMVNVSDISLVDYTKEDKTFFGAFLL

T3: monomeric TL1A (human, UniProt O95150 72-251, limits assumed)
T3 construct: also called TL1A monomer
T3 sequence: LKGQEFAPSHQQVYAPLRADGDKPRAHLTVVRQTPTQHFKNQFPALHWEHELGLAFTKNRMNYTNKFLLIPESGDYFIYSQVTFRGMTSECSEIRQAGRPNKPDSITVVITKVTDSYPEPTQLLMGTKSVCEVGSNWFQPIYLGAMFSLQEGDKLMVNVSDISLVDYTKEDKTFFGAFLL


Columns and labels:
[1] = biological target: T1, IL-23 heterodimer (IL-23α & IL-12β); assay: BLI (Octet); how IL-23 was offered is not described
[2] = biological target: T2, biotinylated recombinant human TL1A; assay: BLI (Octet); by Example 12 biotinylated recombinant human TL1A on streptavidin sensors, dipped into the bispecific antibody for 0-300 s; the sheet does not name the loaded protein or the antibody concentration
Protocol: Kinetic determination and assessment of pH dependency was performed on Octet BLI platform. Briefly, knob-in-hole bispecific antibodies that were prepared according to method described in Example 10 were used for this assay. Briefly, biotinylated recombinant human TL1A was diluted to 7.5 nM in kinetics buffer (1×PBS pH 7.4, 0.1% BSA, 0.05% Tween20, 0.05% sodium azide) and loaded onto streptavidin sensors for a period of 5 minutes. Sensors were then baselined in kinetics buffer before being dipped into bispecific antibodies diluted to varying concentrations, with two-fold serial dilutions for a 5-minute association step, followed by a 15-minute dissociation step. Top concentrations were determined based on approximate KD determined during a scouting experiment. Referencing was performed using a loaded sensor that was dipped into buffer as opposed to antibody, as well as unloaded sensors dipped into antibody. Then, data was aligned and fitted.

monomeric TL1A = biological target: T3, monomeric TL1A; assay: SPR, antibody captured by anti-human IgG-Fc, TL1A monomer as analyte, pH 7.4; pH 7.4, monomeric TL1A as analyte
Protocol: Binding kinetic assays were performed for determining pH dependent binding activity of a lead TL1A binding antibody candidate, as identified in Example 3, and 7 different variants thereof using surface plasma resonance (SPR) spectroscopy. Each TL1A binding candidate comprised a VH sequence that comprised at least one modification in CDR or framework region of variable region of the VH sequence. Briefly, an amine-coupled anti-human IgG-Fc specific polyclonal antibody was immobilized on a SPR sensor chip. All TL1A binding antibody candidates were expressed at 1 mL scale in chinese hamster ovary (CHO) cells for 6 days, and supernatant was cleared of cells by centrifugation. To form a captured antibody array, TL1A binding antibody candidates were batch diluted to approximately 1.7-13.3 nM (either after Protein A purification or directly from CHO supernatant) and injected onto the chip. Non-regenerative kinetics were measured by injecting TL1A monomer starting at a concentration of 2.57E-10 M, with 6-fold increase in concentration up to 3.33E-07 M at pH 7.4 and 5.8, respectively. Likewise, non-regenerative kinetics were also measured for TL1A trimer starting at a concentration of 2.57E-10 M, with 6-fold increase in concentration up to 3.33E-07 M at pH 7.4. Each analyte injection flowed over the array at […] for a 5-minute association phase, followed by a 10-minute buffer dissociation phase. Binding was detected and relative capture response units (RU) were collected for each antibody on the surface.

Row | Binder | binding result [1] | binding result [2] | Kd (monomeric TL1A)
1 | TL1A binding antibody candidate 2 of TABLE 47 (VH SEQ ID NO: 903, VL SEQ ID NO: 1768) (antibody, V domains shown, It was expressed in CHO cells and captured by an anti-human IgG-Fc antibody (human IgG Fc)) VH: QVQLQESGPGLVKPSGTLSLTCAVSGGSISSRNWWSWVRQPPGKGLEWIGEIYHSGSTNYNPSLKSRVTISVDKSKNQFSLNLNSVTAADTAVYYCARDNDILDGYFDGYFDYWGQGTLVTVSS VL: not shown | – | – | 5.53 nM
2 | TL1A binding antibody candidate 1 of TABLE 47 (VH SEQ ID NO: 902, VL SEQ ID NO: 1768) (antibody, V domains shown, It was expressed in CHO cells and captured by an anti-human IgG-Fc antibody (human IgG Fc)) VH: QVQLQESGPGLVKPSGTLSLTCAVSGGSISSRNWWSWVRQPPGKGLEWIGEIYHSGSTNYNPSLKSRVIISVDKSKNQFSLNLNSVTAADTAVYYCARDNDILTGYFDGYFDYWGQGTLVTVSS VL: not shown | – | – | 6.46 nM
3 | TL1A binding antibody candidate 6 of TABLE 47 (VH SEQ ID NO: 908, VL SEQ ID NO: 1768) (antibody, V domains shown, It was expressed in CHO cells and captured by an anti-human IgG-Fc antibody (human IgG Fc)) VH: QVQLQESGPGLVKPSGTLSLTCAVSGGSISSRNWWSWVRQPPGKGLEWIGEIYHSGSTNYNPSLKSRVTISVDKSKNQFSLNVNSVTAADTAVYYCARDNDILTGYFDGYFDYWGQGTLVTVSS VL: not shown | – | – | 3.05 nM
4 | TL1A binding antibody candidate 5 of TABLE 47 (VH SEQ ID NO: 907, VL SEQ ID NO: 1768) (antibody, V domains shown, It was expressed in CHO cells and captured by an anti-human IgG-Fc antibody (human IgG Fc)) VH: QVQLQESGPGLVKPSGTLSLTCAVSGGSITSRNWWSWVRQPPGKGLEWIGEIYHSGSTNYNPSLKSRVTISVDKSKNQFSLNLNSVTAADTAVYYCARDNDILTGYFDGYFDYWGQGTLVTVSS VL: not shown | – | – | 5.19 nM
5 | TL1A binding antibody candidate 7 of TABLE 47 (VH SEQ ID NO: 909, VL SEQ ID NO: 1768) (antibody, V domains shown, It was expressed in CHO cells and captured by an anti-human IgG-Fc antibody (human IgG Fc)) VH: QVQLQESGPGLVKPSGTLSLTCAVSGGSISSRNWWSWVRQPPGKGLEWIGEIYHSGSTNYNPSLKSRVTISVDKSKNQFSLNLKSVTAADTAVYYCARDNDILTGYFDGYFDYWGQGTLVTVSS VL: not shown | – | – | 4.57 nM

Continued, values first:

Row | binding result [1] | binding result [2] | Kd (monomeric TL1A) | Binder
6 | binds | binds | – | bispecific antibody candidate II-1 (bispecific antibody, IgG1, V domains shown, hIgG1, 1:1 knob-in-hole; also called 11-1; knob-in-hole bispecific antibody) VH 1: QVQLVQSGAEVKKPGSSVKVSCKASGGTFTIYAISWVRQAPGQGLEWMGGILPIFGTGHYVQKFQGRVTITADESTSTSYMELSSLRSEDTAVYYCAREPENWGQGTLVTVSS VH 2: QVQLQESGPGLVEPSGTLSLTCAVSGGSISSRNWWSWVRQPPGKGLEWIGEIYHSGSTNYNPSLKSRVTISVDKSKNQFSLNLNSVTAADTAVYYCARDNDILTGYFDGYFDYWGQGTLVTVSS VL: not shown
7 | binds | binds | – | bispecific antibody candidate II-2 (bispecific antibody, IgG1, V domains shown, hIgG1, 1:1 knob-in-hole; also called 11-2; knob-in-hole bispecific antibody) VH 1: QVQLVQSGAEVKKPGASVKVSCTASGDAFTGDSIHWVRQAPGQGLEWMGWITPNSGGTSYAQRFQGRVTLTRDTSISTVYMDLRRLRSDDTAVYFCASGLTVPFDYWGQGTLVTVSS VH 2: QVQLQESGPGLVEPSGTLSLTCAVSGGSISSRNWWSWVRQPPGKGLEWIGEIYHSGSTNYNPSLKSRVTISVDKSKNQFSLNLNSVTAADTAVYYCARDNDILTGYFDGYFDYWGQGTLVTVSS VL: not shown
8 | – | – | 9.66 nM | TL1A binding antibody candidate 8 of TABLE 47 (VH SEQ ID NO: 933, VL SEQ ID NO: 1768) (antibody, V domains shown, It was expressed in CHO cells and captured by an anti-human IgG-Fc antibody (human IgG Fc)) VH: QVQLQESGPGLVEPSGTLSLTCAVSGGSISSRNWWSWVRQPPGKGLEWIGEIYHSGSTNYNPSLKSRVTISVDKSKNQFSLNLNSVTAADTAVYYCARDNDILTGYFDGYFDYWGQGTLVTVSS VL: not shown
